Molecular target: human hair (keratin-containing material) (human)
Assay: Hair adherence test: His-tagged protein incubated with cut human hair, detected with anti-poly-histidine peroxidase conjugate and TMB; buffer background 0.05

comparable protein YaaD of B. subtilis with a His-tag (from UniProt P37527 1-294)
absorption at 405 nm: 0.12 A405
